Patent US11015206B2, “Compositions and methods comprising sequences having hydroxyphenylpyruvate dioxygenase (HPPD) activity” (PIONEER HI-BRED INTERNATIONAL, INC., priority 2014, dated 2021)
Numbering of substitutions follows the chain as printed.

B1: P056028-F-01 (protein)
chain: MGPTPTATAAGAAVAAASAAEQAAFRLVGHRNFVRFNPRSDRFQTLAFHHVELWCADAASAAGRFSFALGVPLAARSDLSTGNSAHASLLLRSGSLSLLFTAPYAHGADAATAALPSFSAAAARRFAADHGLAVRAVALRVADAEDAFRASVAAGARPAFGPVDLGRGFRLAEVELYGDVVLRYVSYPDGGAGEPFLPGFEGVASPGAADYGLSRFDHIVGNVPELAPAAAYMAGFTGFHEFAEFTTEDVGTTESGLNSMALANNSENVLLPLNEPVHGTKRRSQIQTFLDHHGGPGVQHIALASDDVLRTLREMRARSAMGGFEFLPPPLSDYYDGVRRCAGDVLTEAQINECQELGVMVDRDDEGVLLQIFTKPVGDRPTFFLEIIQRIGCMEKDEKGQEYQKGGCGGFGKGNFGQLFRSIEDYEKSLEAKRAAAAATAQGS
modifications: Zea mays variant form created by artificial means.
B2: P056028-D-08 (protein)
chain: B1 chain with R340K, R421K
modifications: Zea mays variant form created by artificial means.
B3: P056028-C-01 (protein)
chain: B1 chain with G191A, P206S, Y211L, R421K, R434Q
modifications: Zea mays variant form created by artificial means.
B4: P056028-C-07 (protein)
chain: B1 chain with R340K, E356R, R421K
modifications: Zea mays variant form created by artificial means.
B5: P056028-C-05 (protein)
chain: B1 chain with G191A, R340K, E356R, R421K, R434Q
modifications: Zea mays variant form created by artificial means.
B6: P056028-A-10 (protein)
chain: B1 chain with G191A, P206Q, Y211L, E356K, R421K, R434Q
modifications: Zea mays variant form created by artificial means.
B7: P056028-A-08 (protein)
chain: B1 chain with L182M, G191A, P206Q, H278R, R340K, R421K, R434Q, A438T
modifications: Zea mays variant form created by artificial means.
B8: P056028-A-07 (protein)
chain: B1 chain with P206Q, Y211L, R421K, R434Q
modifications: Zea mays variant form created by artificial means.
B9: P056028-A-04 (protein)
chain: B1 chain with G191A, E356R, L385I, R421K, R434Q
modifications: Zea mays variant form created by artificial means.
B10: P056028-A-09 (protein)
chain: B1 chain with P158K, G191A, Y211L, S214N, R421K, R434Q
modifications: Zea mays variant form created by artificial means.
B11: P056028-A-11 (protein)
chain: B1 chain with G191A, G417S, R421K, R434Q
modifications: Zea mays variant form created by artificial means.
B12: P056028-E-02 (protein)
chain: B1 chain with G191A, P206S, R421K, R434Q
modifications: Zea mays variant form created by artificial means.
B13: P056028-A-05 (protein)
chain: B1 chain with G191A, P206Q, R340K, R421K, R434Q
modifications: Zea mays variant form created by artificial means.

What was measured:
Type in all cases: biochemical, Z. mays
[1] = system: 4-hydroxyphenylpyruvate dioxygenase (HPPD); experiment: ON rate ratio: HPPD reaction rate with vs without inhibitor in the 70 to 90 second interval; details: Table 7; tembotrione; combinatorial variants
Excerpt: (§1) Higher KD (reduced affinity or increased insensitivity) can be attained with a numerically smaller ON rate, a larger OFF rate or both. To detect and quantify changes in kON and kOFF, observations of the time course of an HPPD reaction as inhibitor binds to and inactivates the enzyme (kON), or is released from a pre-formed enzyme-inhibitor complex (kOFF) were used, as shown in FIGS. 13A and 13B. In practice, a quantitative indicator of kON was obtained by monitoring the time courses of HPPD reactions containing 60 or 120 nM HPPD and 100 μM HPP in the presence and absence of 4 μM inhibitor (e.g., mesotrione or tembotrione). The ratio of the reaction rate with inhibitor to that without inhibitor during the 70 to 90 second interval of the reaction was termed the “ON rate ratio”. The smaller the actual kON, the more slowly the HPPD reaction decelerates and the higher the value is for the ON rate ratio. FIGS. 13A and 13B illustrate the contrasting reaction velocity in the 70-90 sec interval for maize wild-type HPPD (FIG. 13A) versus an improved variant (SEQ ID NO:78) (FIG. 13B).

[2] = system: 4-hydroxyphenylpyruvate dioxygenase (HPPD); experiment: OFF rate ratio: release of inhibitor from pre-formed enzyme-inhibitor complex; details: Table 7; tembotrione; combinatorial variants
Experimental: A quantitative indicator of kOFF can be obtained by observing the time course of an HPPD reaction as inhibitor is released from a pre-formed enzyme-inhibitor complex. HPPD and inhibitor were incubated together at concentrations of 7.2 and 8 μM, respectively. Incubations with the same concentrations of enzyme but no inhibitor were done in parallel. After 1 hr at room temperature, 5 to 10 μl of the enzyme-inhibitor complex was dispensed into the wells of the assay plate. Reactions were started with the addition of 290 to 295 μl of 25 mM Hepes, pH 7, 2 mM ascorbate, 10 μM FeSO4, 100 μM HPP and 50 nM HGD. The reactions were monitored at 320 nm for 12 min. Reaction velocity accelerates as inhibitor is released from the enzyme until a steady state is reached, during which the reaction velocity is constant. The ratio of the steady state rate in mixtures containing herbicidal inhibitor to the initial velocity of mixtures lacking inhibitor is termed the “OFF rate ratio”.
Another parameter to record is the time span required for the reactions with inhibitor to reach the steady state. FIGS. 13C and 13D illustrate the contrasting time span in which maize wild-type HPPD (FIG. 13C) and an improved variant (SEQ ID NO:78) (FIG. 13D) dissociated from mesotrione, as indicated by the accelerating reaction rates. The plateau of absorbance is due to exhaustion of the substrate. With the improved variant, not only was the steady state attained in a shorter time span (80 sec for the variant versus 280 sec for wild type), the velocity attained was twice as high as with wild type, though the enzymes were present at the same concentration (240 nM). This is because a larger fraction of the variant enzyme is free of inhibitor compared to the wild-type enzyme, and the kcat for both is nearly the same, about 220 min^−1.

[3] = system: 4-hydroxyphenylpyruvate dioxygenase (HPPD); experiment: Insensitivity parameter (ON × OFF) and trait fitness (ON × OFF × kcat/KM or × kcat); design: key to ON × OFF / Insensitivity, mesotrione, ON × OFF / Insensitivity, tembotrione, ON × OFF / Insensitivity, topramezone, ON × OFF / Insensitivity, sulcotrione, ON × OFF / Insensitivity, isoxaflutole (DKN), ON × OFF: insensitivity = ON rate ratio × OFF rate ratio (surrogate for KD)
Excerpt: Because substrate and inhibitors bind in the same site, the high concentration of substrate present may competitively trap the inhibitor and prevent it from binding again. To be sure that improvement in ON rates is being taken into account, the ON and OFF rate ratios were multiplied, creating an “insensitivity parameter” that is a surrogate for KD. KD is expressed as kOFF/kON, but because the ON rate ratio is an inverse parameter (the higher the value of ON rate ratio, the lower the value of the represented phenomenon, kON), it is appropriate to multiply ON and OFF rate ratios rather then divide OFF rate ratio by ON rate ratio. Another parameter, which quantifies the combined catalytic and insensitivity properties of the enzyme is kcat/KM×ON rate ratio×OFF rate ratio, and is termed “trait fitness”. This parameter is intended to have a meaning similar to the commonly used expression kcat/KM×Ki.

[4] = system: 4-hydroxyphenylpyruvate dioxygenase (HPPD); experiment: Estimate of kcat from initial rate at saturating hydroxyphenylpyruvate without inhibitor (ON rate ratio assay)
Excerpt: as §1
Thirty nine variants were desensitized to tembotrione compared with the backbone enzyme, Round 7, variant 9070 (SEQ ID NO:2) and all were desensitized compared with maize wild type HPPD (SEQ ID NO:1). Because the assay for ON rate ratio includes an initial rate measurement at saturating hydroxyphenylpyruvate without inhibitor and with known enzyme concentration, an estimate of kcat was available. Taking into account kcat and insensitivity parameters, 30 variants were selected for measurement of substrate saturation kinetic parameters and re-evaluation of insensitivity to tembotrione. The kinetic and insensitivity parameters were determined as described in Example 1, and were multiplied to generate the “trait fitness” parameter. The complete list of variants, i.e., of selected single substitutions in SEQ ID NO:2, analyzed with multiple inhibitors and the results obtained are shown in Table 6. The same set of 30 variants were evaluated for insensitivity to mesotrione, sulcotrione, isoxaflutole (its active diketonitrile form, abbreviated DKN in Table 6) and topramezone.

[5] = Table 7, tembotrione, combinatorial variants
[6] = Table 7, combinatorial variants

Molecule	ON rate ratio [1]	OFF rate ratio [2]	ON × OFF ([3]; Megatable 3, shuffled variants)	ON × OFF × kcat ([3]; Megatable 3, shuffled variants)	ON × OFF [3, 5]	ON × OFF × kcat [3, 5]	kcat ([4]; Megatable 3, shuffled variants) [s⁻¹]	kcat [4, 6] [s⁻¹]
B1	0.718	0.304	0.218	6.82	0.218	6.82	0.522	0.522
B2	0.681	0.361	0.246	6.77	0.246	6.77	0.458	0.458
B3	0.742	0.310	0.230	5.95	0.230	5.95	0.432	0.432
B4	0.714	0.382	0.273	5.80	0.273	5.80	0.353	0.353
B5	0.715	0.375	0.268	5.80	0.268	5.80	0.362	0.362
B6	0.707	0.367	0.260	4.35	0.260	4.35	0.28	0.28
B7	0.669	0.324	0.217	5.68	0.217	5.68	0.437	0.437
B8	0.726	0.329	0.239	4.65	0.239	4.65	0.325	0.325
B9	0.724	0.133	0.096	1.06	0.096	1.06	0.185	0.185
B10	0.692	0.339	0.235	3.26	0.235	3.26	0.232	0.232
B11	0.706	0.366	0.258	2.21	0.258	2.21	0.143	0.143
B12	0.761	0.326	0.248	5.86	0.248	5.86	0.393	0.393
B13	0.707	0.280	0.198	3.50	0.198	3.50	0.295	0.295
